Experimental data taken from paper PMC6155162, “Identification of mesothelioma-specific sialylated epitope recognized with monoclonal antibody SKM9-2 in a mucin-like membrane protein HEG1” (Scientific Reports, 2018).

Key:
SKM9-2 [1] = assay: Western blotting using SKM9-2 of HEG1 truncated mutants and epitope-fused GPI-anchor proteins; assay type: binding; conditions: cell lysates of transfected HEK293T, SDS-PAGE under reducing conditions, 1 µg/mL SKM9-2
Description: Figure 1 SKM9-2 binding to truncated mutants of HEG1. Schematics of full-length HEG1 (Full) and the truncated mutants are indicated on the left side and the results of western blotting using SKM9-2 are shown on the right side. Truncated amino acid position, which is based on a full-length variant of HEG1 containing exon 6, is shown as a number in the schematic of domain structure. The region of the SKM9-2 epitope is shown as a red square. […] SLURP GPI-anchor protein[18] was used as a fused GPI-anchor protein (violet square). The terminal sequences of the HEG1 peptide are shown in the western blot lane. The samples were resolved by 6% SDS-PAGE (a and b) or 4–15% SDS-PAGE (c) under reducing conditions and were detected by western blotting using SKM9-2. Cyt, cytoplasmic domain; EGFs, EGF related domains; Ser/Thr, serine/threonine rich region; SLURP, secreted lymphocyte antigen-6/urokinase-type plasminogen activator receptor-related peptide; SP, signal peptide; TM, transmembrane domain. Full-length blots are presented in Supplementary Fig. S7.
Figure 2 Epitope mapping of SKM9-2. Schematic of epitope peptides (left side) and western blots resolved by 4–15% SDS-PAGE (right side) are shown. The HEG1 peptide sequences are indicated in the western blot lane. Each epitope peptide was fused with a signal peptide (dashed line square) and a SLURP GPI-anchor protein (violet square). Full-length blots are presented in Supplementary Fig. S8.
Figure 3 Alanine scanning of SKM9-2 epitope. […] Cell lysates of transfected HEK293T (upper panel) or transfected ACC-MESO1 (lower panel) were resolved by 4–15% SDS-PAGE and analyzed by western blotting using SKM9-2. (b) S897A mutant of FLAG-tagged HEG1 in HEK293T was resolved by 4–15% SDS-PAGE and analyzed by western blotting using SKM9-2 (upper panel) or anti-FLAG mAb (lower panel). Native HEG1 in ACC-MESO4 and FLAG-tagged HEG1 without mutation in HEK293T were used as controls. Full-length blots are presented in Supplementary Fig. S9.
Sequences of tested HEG1 are shown in Supplementary Dataset. Full-length HEG1 cDNA was synthesized from total RNA purified with TRIzol reagent (Thermo Fisher Scientific) from ACC-MESO-4, using an oligo dT primer and SuperScript II RNase H reverse transcriptase (Thermo Fisher Scientific). cDNA encoding the HEG1 open reading frame was amplified by PCR using PrimeSTAR HS DNA Polymerase (Takara Bio Inc., Shiga, Japan). The HEG1 cDNA was cloned and inserted into the pcDNA3.1(−) mammalian expression vector (Thermo Fisher Scientific). For analyses of N-terminal truncation, we inserted mutants into pFLAG-CMV1 (Sigma-Aldrich Japan K.K., Tokyo, Japan). For analyses of C-terminal deletion lacking the transmembrane domain, we used mutants that were fused with a GPI-anchor protein, SLURP1-gpi[18], in pcDNA3.1(+) (Thermo Fisher Scientific) (Supplementary Dataset). Alanine substituted mutants were prepared using site directed mutagenesis. To produce a soluble epitope peptide, a modified HEG1 signal peptide and a C-terminal tag containing the FLAG tag plus a polyhistidine sequence were used in the mammalian expression vector pEF-BOS[39] (Supplementary Dataset). The plasmid constructs were transfected with Lipofectamine 3000 (Thermo Fisher Scientific). The HEG1 peptide-expressing 293 H clone was obtained by selection with geneticin (Thermo Fisher Scientific).
Monolayer cells were solubilized with 20 mM Tris buffer (pH 8.0) containing 1% SDS, 1 mM phenylmethylsulfonyl fluoride, 125 mU/mL Benzonase Nuclease (Merck Millipore Co., Tokyo, Japan) (25 µL/cm^2 culture surface area). The lysate (10 µL/lane) was resolved by SDS-PAGE under reducing conditions using 6% polyacrylamide gels or 4–15% precast gels (Bio-Rad Laboratories Inc., Hercules, CA, USA). […]

SKM9-2 [2] = assay: Deglycosylation analysis: western blotting using SKM9-2 of neuraminidase-treated cell lysates; assay type: binding; conditions: full-length HEG1, lysates of ACC-MESO4 (native) or HEG1-transfected HEK293T, 6% SDS-PAGE
Description: Figure 8 SKM9-2 epitope produced from mesothelioma cells. (a) Chromatogram of SKMepmin3 separation using anion exchange column. SKMepmin3 produced from HEK293T (blue line) or ACC-MESO4 (pink line) was affinity-purified using SKM9-2-immobilized resins and separated by Mini Q 4.6/50 PE. A major peak of SKMepmin3 purified from HEK293T contained two disialyl T antigens (Fig. 6). (b) Western blotting for epitope-fused GPI-anchor protein (7.6231) treated with neuraminidases. Cell lysate of 7.6231-transfected ACC-MESO1 (top panel), ACC-MESO4 (middle panel), or HEK293T (lower panel) was treated with α2-3 Neuraminidase S or Neuraminidase A, resolved by 4–15% SDS-PAGE, and analyzed by western blotting using SKM9-2. (c) Western blotting for full-length HEG1 treated with neuraminidases. Cell lysates of ACC-MESO4 (upper panel) and HEG1-transfected HEK293T (lower panel) were treated with α2-3 Neuraminidase S or Neuraminidase A and analyzed by 6% SDS-PAGE and western blotting using SKM9-2. (d) Schematic of SKM9-2 epitope. Full-length blots are presented in Supplementary Fig. S10.
Monolayer cells were solubilized with 20 mM Tris buffer (pH 8.0) containing 1% SDS, 1 mM phenylmethylsulfonyl fluoride, 125 mU/mL Benzonase Nuclease (Merck Millipore Co., Tokyo, Japan) (25 µL/cm^2 culture surface area). The lysate (10 µL/lane) was resolved by SDS-PAGE under reducing conditions using 6% polyacrylamide gels or 4–15% precast gels (Bio-Rad Laboratories Inc., Hercules, CA, USA). Then it was transferred to a polyvinylidene difluoride membrane (Immobilon-P; Merck Millipore Co.) by semi-dry blotting in a buffer containing 25 mM Tris, 192 mM glycine, 0.1% SDS, and 20% methanol. The membrane was blocked with 5% non-fat milk in 20 mM Tris-buffered saline (pH 7.2) containing 0.1% Tween 20 and reacted with 1 µg/mL of mAb SKM9-2 or anti-FLAG (Anti-DYKDDDDK tag mAb; 1E6, Wako Pure Chemical Industries, Osaka, Japan). After washing, it was treated with horseradish peroxidase-conjugated goat anti-mouse IgG (Jackson ImmunoResearch, West Grove, PA, USA), and developed with Amersham ECL select (GE Healthcare, Buckinghamshire, UK). Although glycan in non-fat milk often interferes the glycan-dependent binding of an antibody, the SKM9-2 binding was not affected by the blocking using non-fat milk, in comparison with 5% bovine serum albumin (Supplementary Fig. S6).
Cell lysate or SKMepmin3 was treated with α2-3 Neuraminidase S, α2-3, 6, 8, 9 Neuraminidase A, and O-Glycosidase (New England Biolabs Japan, Tokyo, Japan) in 50 mM sodium phosphate (pH 7.5) containing 1% Nonidet P-40, according to the manufacturer’s instructions. The cell lysate sample was resolved by 4–15% or 6% SDS-PAGE under reducing conditions and detected by western blotting using SKM9-2. The analysis of the SKMepmin3 sample was performed by SPR.

B1: 1 kb: FLAG-tagged N-terminal deletion mutant hHEG1 (1086-1481) (protein)
chain: MSALLILALVGAAVADYKDDDDKLAAANSSIDLVNSCAVNPCLHNGECVADNTSRGYHCRCPPSWQGDDCSVDVNECLSNPCPSTAMCNNTQGSFICKCPVGYQLEKGICNLVRTFVTEFKLKRTFLNTTVEKHSDLQEVENEITKTLNMCFSALPSYIRSTVHASRESNAVVISLQTTFSLASNVTLFDLADRMQKCVNSCKSSAEVCQLLGSQRRIFRAGSLCKRKSPECDKDTSICTDLDGVALCQCKSGYFQFNKMDHSCRACEDGYRLENETCMSCPFGLGGLNCGNPYQLITVVIAAAGGGLLLILGIALIVTCCRKNKNDISKLIFKSGDFQMSPYAEYPKNPRSQEWGREAIEMHENGSTKNLLQMTDVYYSPTSVRNPELERNGLYPAYTGLPGSRHSCIFPGQYNPSFISDESRRRDYF
- recognition by SKM9-2 upon western blot analysis (SKM9-2 [1]): not detected

B2: Native endogenous HEG1: native HEG1, 400 kDa mucin-like membrane protein, in ACC-MESO4 cells (protein, UniProt Q9ULI3 30-1381, looked up)
Protein HEG homolog 1: TRDPPPSPARRALSLAPLAGAGLELQLERRPEREPPPTPPRERRGPATPGPSYRAPEPGAATQRGPSGRAPRGGSADAAWKHWPESNTEAHVENITFYQNQEDFSTVSSKEGVMVQTSGKSHAASDAPENLTLLAETADARGRSGSSSRTNFTILPVGYSLEIATALTSQSGNLASESLHLPSSSSEFDERIAAFQTKSGTASEMGTERAMGLSEEWTVHSQEATTSAWSPSFLPALEMGELTTPSRKRNSSGPDLSWLHFYRTAASSPLLDLSSSSESTEKLNNSTGLQSSSVSQTKTMHVATVFTDGGPRTLRSLTVSLGPVSKTEGFPKDSRIATTSSSVLLSPSAVESRRNSRVTGNPGDEEFIEPSTENEFGLTSLRWQNDSPTFGEHQLASSSEVQNGSPMSQTETVSRSVAPMRGGEITAHWLLTNSTTSADVTGSSASYPEGVNASVLTQFSDSTVQSGGSHTALGDRSYSESSSTSSSESLNSSAPRGERSIAGISYGQVRGTAIEQRTSSDHTDHTYLSSTFTKGERALLSITDNSSSSDIVESSTSYIKISNSSHSEYSSFFHAQTERSNISSYDGEYAQPSTESPVLHTSNLPSYTPTINMPNTSVVLDTDAEFVSDSSSSSSSSSSSSSSGPPLPLPSVSQSHHLFSSILPSTRASVHLLKSTSDASTPWSSSPSPLPVSLTTSTSAPLSVSQTTLPQSSSTPVLPRARETPVTSFQTSTMTSFMTMLHSSQTADLKSQSTPHQEKVITESKSPSLVSLPTESTKAVTTNSPLPPSLTESSTEQTLPATSTNLAQMSPTFTTTILKTSQPLMTTPGTLSSTASLVTGPIAVQTTAGKQLSLTHPEILVPQISTEGGISTERNRVIVDATTGLIPLTSVPTSAKEMTTKLGVTAEYSPASRSLGTSPSPQTTVVSTAEDLAPKSATFAVQSSTQSPTTVSSSASVNSCAVNPCLHNGECVADNTSRGYHCRCPPSWQGDDCSVDVNECLSNPCPSTAMCNNTQGSFICKCPVGYQLEKGICNLVRTFVTEFKLKRTFLNTTVEKHSDLQEVENEITKTLNMCFSALPSYIRSTVHASRESNAVVISLQTTFSLASNVTLFDLADRMQKCVNSCKSSAEVCQLLGSQRRIFRAGSLCKRKSPECDKDTSICTDLDGVALCQCKSGYFQFNKMDHSCRACEDGYRLENETCMSCPFGLGGLNCGNPYQLITVVIAAAGGGLLLILGIALIVTCCRKNKNDISKLIFKSGDFQMSPYAEYPKNPRSQEWGREAIEMHENGSTKNLLQMTDVYYSPTSVRNPELERNGLYPAYTGLPGSRHSCIFPGQYNPSFISDESRRRDYF
- SKM9-2 binding (western blot) (SKM9-2 [2]; Neuraminidase A): lost
- SKM9-2 binding (western blot) (SKM9-2 [2]; α2–3 Neuraminidase S): weakened
